From doi:10.1101/2020.06.12.149468v2 (biorxiv, 2026)

Legend:
[1] = molecular target: T1, mouse NR4A3 ligand-binding domain (Mus musculus, UniProt Q9QZB6); experiment: isothermal titration calorimetry
T1 sequence (Q9QZB6 395-624): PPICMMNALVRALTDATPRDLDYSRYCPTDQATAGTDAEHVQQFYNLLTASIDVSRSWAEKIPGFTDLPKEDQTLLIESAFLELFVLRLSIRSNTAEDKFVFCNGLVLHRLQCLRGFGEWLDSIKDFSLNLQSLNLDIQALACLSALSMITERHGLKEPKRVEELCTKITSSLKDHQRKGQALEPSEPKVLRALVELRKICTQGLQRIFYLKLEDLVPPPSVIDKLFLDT

[2] = tested on: C[C@]12CCC(=O)C=C1CC[C@@H]1[C@@H]2[C@@H](O)C[C@@]2(C)[C@H]1CC[C@]2(O)C(=O)CO; experiment: purified protein; conditions: 50 mM phosphate pH 7.5, NADH
purified protein = substrate: C[C@]12CCC(=O)C=C1CC[C@@H]1[C@@H]2[C@@H](O)C[C@@]2(C)[C@H]1CC[C@]2(O)C(=O)CO; experiment: purified protein; conditions: 50 mM phosphate pH 7.5, NADH; remark: listed apart in the source

For `C[C@]12CCC(=O)C=C1CC[C@@H]1[C@@H]2[C@@H](O)C[C@@]2(C)[C@H]1CC[C@]2(O)[C@@H](O)CO` [20α-dihydrocortisol], the Kd [1] was 21.9 ± 2.6 µM.

Molecule `CCCCC[C@H](O)/C=C/[C@H]1C=CC(=O)[C@@H]1C/C=C\CCCC(=O)O` [PGA2] has a Kd [1] of 66.6 ± 17.4 µM.

Work on “DesC ([Clostridium] scindens ATCC 35704; H50A)” yielded a Km [2] of 23.99 ± 0.26 µM and a kcat [2] of 12.5 ± 0.89 min⁻¹.

“DesC ([Clostridium] scindens ATCC 35704; S47T)” showed a Km [2] of 77.78 ± 1.78 µM and a kcat [2] of 0.66 ± 0.04 min⁻¹.

“DesC ([Clostridium] scindens ATCC 35704; Y101R)” was tested, and the Km [2] was 628.65 ± 29.96 µM and the kcat [2] was 1.77 ± 0.30 min⁻¹.

“DesC ([Clostridium] scindens ATCC 35704; Y124R)” gave a Km [2] of 61.01 ± 2.71 µM and a kcat [2] of 8.06 ± 0.14 min⁻¹.

B1: DesC ([Clostridium] scindens ATCC 35704) (protein)
chain: MRQLFVTSIRDFEKNTMGTVDMMEAPMPEPKDEEIRIKVVYASICGSDTHILTGNLGEMESTTRSMLPMSFGHELSGVIDKVGSTAEKMGFKVGQKVVANYAKYCGCCENCREGKVNLCSNMGYRMNGFSEYAVYHMSQIFPIPDDADLKDYALVEPLTVALSSAEQAKISYGKSVAIMGAGGLGMMLVQLARLAGASTITVFDIVPEKLELALENGADYALNSAEEGVAERAIELAGGRYDCVLEGTGATAAAKLGLQLLARDGDAVYFAMYGKDPILPVNLQSDLYWDQKHIHGMIQGAWQFPKSIRMIPRMDFSKIIQKEHTLTNYKQAFEDLYSKKYAKIVIKMDE
Work on B1 yielded a Km (purified protein) of 11.62 ± 1.02 µM and a kcat (purified protein) of 92.31 ± 7.49 min⁻¹.
